Assay results reported in article PMC9381698, “Generation of synthetic antibody fragments with optimal complementarity determining region lengths for Notch-1 recognition” (Frontiers in Microbiology, 2022).
Substitutions are numbered along the chain they refer to.

B1: Fab N1/F/R1 (purified soluble Fab) (Fab, V domains shown)
VH: EVQLVESGGGLVQPGGSLRLSCAASGFNIYSSYIHWVRQAPGKGLEWVASIYPYYGSTYYADSVKGRFTISADTSKNTAYLQMNSLRAEDTAVYYCARYAHFSVYGAMDYWGQGTLVTVSS
VL: DIQMTQSPSSLSASVGDRVTITCRASQSVSSAVAWYQQKPGKAPKLLIYSASSLYSGVPSRFSGSRSGTDFTLTISSLQPEDFATYYCQQWYGGYALFTFGQGTKVEIK
notes: light chain on the modified trastuzumab framework of Library-F (Persson et al., 2013); CDRs L1 and L2 fixed; clone reconstructed from NGS information; Fab heavy chain on the modified trastuzumab framework of Library-F; medium CDRH3 length; The Fab is detected by an anti-HIS antibody; source: E. coli BL21, purified (Protein-L resin)
B2: Fab N1/F/3 (purified soluble Fab) (Fab, V domains shown)
VH: EVQLVESGGGLVQPGGSLRLSCAASGFNLYSYYIHWVRQAPGKGLEWVASISSYYGYTSYADSVKGRFTISADTSKNTAYLQMNSLRAEDTAVYYCARYWHGALDYWGQGTLVTVSS
VL: DIQMTQSPSSLSASVGDRVTITCRASQSVSSAVAWYQQKPGKAPKLLIYSASSLYSGVPSRFSGSRSGTDFTLTISSLQPEDFATYYCQQGYFTYLFTFGQGTKVEIK
notes: light chain on the modified trastuzumab framework of Library-F (Persson et al., 2013); CDRs L1 and L2 fixed; Fab heavy chain on the modified trastuzumab framework of Library-F; short CDRH3; The Fab is detected by an anti-HIS antibody; source: E. coli BL21, purified (Protein-L resin)
B3: Fab N1/F/R3 (purified soluble Fab) (Fab, V domains shown)
VH: EVQLVESGGGLVQPGGSLRLSCAASGFNIYSSYMHWVRQAPGKGLEWVASIYPYYGYTSYADSVKGRFTISADTSKNTAYLQMNSLRAEDTAVYYCARYFSYGPFYYGSGLDYWGQGTLVTVSS
VL: DIQMTQSPSSLSASVGDRVTITCRASQSVSSAVAWYQQKPGKAPKLLIYSASSLYSGVPSRFSGSRSGTDFTLTISSLQPEDFATYYCQQGFSLITFGQGTKVEIK
notes: as for B1
B4: phage-displayed Fab N1/ModF/1 (Fab, V domains shown)
VH: EVQLVESGGGLVQPGGSLRLSCAASGFNLYSSYMHWVRQAPGKGLEWVAYISPSYSYTYYADSVKGRFTISADTSKNTAYLQMNSLRAEDTAVYYCARWGHSPSGVGWYGALDYWGQGTLVTVSS
VL: DIQMTQSPSSLSASVGDRVTITCRASQSVSSAVAWYQQKPGKAPKLLIYSASSLYSGVPSRFSGSRSGTDFTLTISSLQPEDFATYYCQQPSSHSAALITFGQGTKVEIK
notes: light chain on the modified trastuzumab framework of the Modified-F library (template: anti-MBP Fab phagemid of Library-F, Persson et al., 2013); CDRs L1 and L2 fixed; Fab heavy chain on the modified trastuzumab framework of the Modified-F library; The Modified-F library uses an M13 system that allows bivalent Fab display
B5: phage-displayed Fab N1/F/R2 (Fab, V domains shown)
VH: EVQLVESGGGLVQPGGSLRLSCAASGFNFSSSSIHWVRQAPGKGLEWVASIYSYYGYTYYADSVKGRFTISADTSKNTAYLQMNSLRAEDTAVYYCARSWWGGSWYAALDYWGQGTLVTVSS
VL: B3 VL with G91W, F92W
notes: as the light chain of m15; as the heavy chain of m15; Reconstructed by Kunkel mutagenesis in the MBP phagemid
B6: phage-displayed Fab N1/F/R3 (Fab, V domains shown)
VH: B3 VH
VL: B3 VL
notes: as the light chain of m16; as the heavy chain of m16; Reconstructed by Kunkel mutagenesis in the MBP phagemid
B7: Fab N1/ModF/5 (purified soluble Fab) (Fab, V domains shown)
VH: EVQLVESGGGLVQPGGSLRLSCAASGFNISSSYMHWVRQAPGKGLEWVASIYSYSGSTYYADSVKGRFTISADTSKNTAYLQMNSLRAEDTAVYYCARSGYSGVSGSVYSYWPFYGLDYWGQGTLVTVSS
VL: B4 VL with P91G, S92P, S93Y, S95G, A96Y, A97S
notes: light chain on the modified trastuzumab framework of the Modified-F library (template: anti-MBP Fab phagemid of Library-F, Persson et al., 2013); CDRs L1 and L2 fixed; Fab heavy chain on the modified trastuzumab framework of the Modified-F library; long CDRH3; The Fab is detected by an anti-HIS antibody; source: E. coli BL21, purified (Protein-L resin)
B8: Fab N1/ModF/2 (purified soluble Fab) (Fab, V domains shown)
VH: EVQLVESGGGLVQPGGSLRLSCAASGFNLYSSYIHWVRQAPGKGLEWVAYISPYSGSTYYADSVKGRFTISADTSKNTAYLQMNSLRAEDTAVYYCARYGYAYHPYHSGYWYGALDYWGQGTLVTVSS
VL: B4 VL with P91V, S93A, H94G, S95Y, A96G, A97P, L98P
notes: as for B7
B9: Fab N1/F/2 (purified soluble Fab) (Fab, V domains shown)
VH: EVQLVESGGGLVQPGGSLRLSCAASGFNLSSYSIHWVRQAPGKGLEWVASISSSYGYTYYADSVKGRFTISADTSKNTAYLQMNSLRAEDTAVYYCARGYYAFDYWGQGTLVTVSS
VL: B2 VL with G91W, Y92W, F93S, T94F, Y95P, F97I
notes: as for B2
B10: Fab N1/F/1 (purified soluble Fab) (Fab, V domains shown)
VH: EVQLVESGGGLVQPGGSLRLSCAASGFNISSYSMHWVRQAPGKGLEWVAYISSSYGSTYYADSVKGRFTISADTSKNTAYLQMNSLRAEDTAVYYCARSWALDYWGQGTLVTVSS
VL: B3 VL with G91Y, F92W, S93G, L94P
notes: as for B2
B11: Fab N1/ModF/2 (Fab, V domains shown)
VH: B8 VH
VL: B4 VL with P91V, S93A, H94G, S95Y, A96G, A97P, L98P
notes: Modified-F library Fab on a modified trastuzumab framework; Modified-F library Fab on a modified trastuzumab framework, CDRs L1 and L2 fixed; The Fab has a His tag (detected with anti-HIS antibody and biosensors); Template phagemid derived from the anti-MBP Fab of Library-F (Persson et al., 2013); source: E. coli BL21, purified (Protein-L resin)
B12: Fab N1/ModF/5 (Fab, V domains shown)
VH: B7 VH
VL: B4 VL with P91G, S92P, S93Y, S95G, A96Y, A97S
notes: as for B11
B13: Fab N1/F/R1 (Fab, V domains shown)
VH: B1 VH
VL: B1 VL
notes: Library-F rare Fab reconstructed from NGS information, modified trastuzumab framework; Library-F rare Fab reconstructed from NGS information, modified trastuzumab framework, CDRs L1 and L2 fixed; The Fab has a His tag (detected with anti-HIS antibody and biosensors); Library-F framework: Persson et al., 2013; source: E. coli BL21, purified (Protein-L resin)
B14: Fab N1/F/2 (Fab, V domains shown)
VH: B9 VH
VL: B2 VL with G91W, Y92W, F93S, T94F, Y95P, F97I
notes: Library-F Fab on a modified trastuzumab framework; Library-F Fab on a modified trastuzumab framework, CDRs L1 and L2 fixed; The Fab has a His tag (detected with anti-HIS antibody and biosensors); Library-F framework: Persson et al., 2013; source: E. coli BL21, purified (Protein-L resin)
B15: Fab N1/F/3 (Fab, V domains shown)
VH: B2 VH
VL: B2 VL
notes: as for B14
B16: Fab N1/F/R2 (Fab, V domains shown)
VH: B5 VH
VL: B3 VL with G91W, F92W
notes: as for B13
B17: Fab N1/F/R3 (Fab, V domains shown)
VH: B3 VH
VL: B3 VL
notes: as for B13
B18: Fab N1/F/1 (Fab, V domains shown)
VH: B10 VH
VL: B3 VL with G91Y, F92W, S93G, L94P
notes: as for B14

What follows are binders tested against T1, Jagged-2 receptor ectodomain (Homo sapiens (assumed), UniProt Q9Y219) (assay: ELISA; single-point Fab-ELISA for specificity: proteins immobilised at 5 ug/ml on MaxiSorp plates; purified Fab at 1 uM; detected with HRP-conjugated anti-HIS antibody, Abs450). Conditions: both partners purified.
T1 construct: Jagged-2 ectodomain; it may be an Fc fusion like the Notch proteins; also called J2
T1 sequence (Q9Y219 27-1080): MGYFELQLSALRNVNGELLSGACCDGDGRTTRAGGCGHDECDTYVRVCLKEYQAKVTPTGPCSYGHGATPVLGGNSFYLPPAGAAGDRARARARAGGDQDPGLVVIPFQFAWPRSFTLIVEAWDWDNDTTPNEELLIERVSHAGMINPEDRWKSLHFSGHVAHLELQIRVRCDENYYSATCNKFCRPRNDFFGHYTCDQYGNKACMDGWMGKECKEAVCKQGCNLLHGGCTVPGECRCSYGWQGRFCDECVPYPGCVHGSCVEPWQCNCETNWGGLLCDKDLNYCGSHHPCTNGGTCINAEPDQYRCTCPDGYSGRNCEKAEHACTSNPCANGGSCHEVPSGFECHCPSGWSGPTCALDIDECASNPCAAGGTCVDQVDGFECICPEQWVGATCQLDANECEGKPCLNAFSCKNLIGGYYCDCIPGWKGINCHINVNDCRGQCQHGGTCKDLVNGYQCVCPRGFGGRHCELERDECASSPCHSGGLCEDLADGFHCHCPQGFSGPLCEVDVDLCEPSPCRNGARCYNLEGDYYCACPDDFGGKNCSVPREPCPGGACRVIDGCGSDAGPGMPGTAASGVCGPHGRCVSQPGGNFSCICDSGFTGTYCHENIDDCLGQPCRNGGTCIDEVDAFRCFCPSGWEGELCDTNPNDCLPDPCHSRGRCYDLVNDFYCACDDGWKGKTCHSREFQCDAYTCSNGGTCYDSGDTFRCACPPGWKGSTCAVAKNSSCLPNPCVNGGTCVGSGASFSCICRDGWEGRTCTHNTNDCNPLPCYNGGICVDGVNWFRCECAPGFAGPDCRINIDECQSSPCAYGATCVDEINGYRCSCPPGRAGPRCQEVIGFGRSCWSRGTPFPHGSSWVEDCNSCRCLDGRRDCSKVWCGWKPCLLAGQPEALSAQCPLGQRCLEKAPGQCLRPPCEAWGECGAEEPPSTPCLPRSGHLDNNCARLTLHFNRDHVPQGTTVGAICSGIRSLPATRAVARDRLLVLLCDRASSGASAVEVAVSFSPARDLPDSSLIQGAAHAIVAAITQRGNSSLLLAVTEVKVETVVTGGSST

| Binder | binding result |
| --- | --- |
| B1 | binds |
| B2 | binds |
| B3 | binds |

These binders were tested against T2, recombinant Fc-tag-fused human Notch-1 extracellular domain (Homo sapiens, UniProt P46531) (assay: ELISA; phage-ELISA: Notch-1 and control proteins immobilised at 5 ug/ml on MaxiSorp plates; phage-displayed Fab at 10^12 PFU/ml in PBT for 30 min; detected with HRP-conjugated anti-M13 antibody, Abs450). Conditions: one partner purified.
T2 construct: Notch-1, human, extracellular domain; No catalogue number and no residue limits are printed; also called N1; source: bought: R&D Systems
T2 sequence (P46531 19-1735): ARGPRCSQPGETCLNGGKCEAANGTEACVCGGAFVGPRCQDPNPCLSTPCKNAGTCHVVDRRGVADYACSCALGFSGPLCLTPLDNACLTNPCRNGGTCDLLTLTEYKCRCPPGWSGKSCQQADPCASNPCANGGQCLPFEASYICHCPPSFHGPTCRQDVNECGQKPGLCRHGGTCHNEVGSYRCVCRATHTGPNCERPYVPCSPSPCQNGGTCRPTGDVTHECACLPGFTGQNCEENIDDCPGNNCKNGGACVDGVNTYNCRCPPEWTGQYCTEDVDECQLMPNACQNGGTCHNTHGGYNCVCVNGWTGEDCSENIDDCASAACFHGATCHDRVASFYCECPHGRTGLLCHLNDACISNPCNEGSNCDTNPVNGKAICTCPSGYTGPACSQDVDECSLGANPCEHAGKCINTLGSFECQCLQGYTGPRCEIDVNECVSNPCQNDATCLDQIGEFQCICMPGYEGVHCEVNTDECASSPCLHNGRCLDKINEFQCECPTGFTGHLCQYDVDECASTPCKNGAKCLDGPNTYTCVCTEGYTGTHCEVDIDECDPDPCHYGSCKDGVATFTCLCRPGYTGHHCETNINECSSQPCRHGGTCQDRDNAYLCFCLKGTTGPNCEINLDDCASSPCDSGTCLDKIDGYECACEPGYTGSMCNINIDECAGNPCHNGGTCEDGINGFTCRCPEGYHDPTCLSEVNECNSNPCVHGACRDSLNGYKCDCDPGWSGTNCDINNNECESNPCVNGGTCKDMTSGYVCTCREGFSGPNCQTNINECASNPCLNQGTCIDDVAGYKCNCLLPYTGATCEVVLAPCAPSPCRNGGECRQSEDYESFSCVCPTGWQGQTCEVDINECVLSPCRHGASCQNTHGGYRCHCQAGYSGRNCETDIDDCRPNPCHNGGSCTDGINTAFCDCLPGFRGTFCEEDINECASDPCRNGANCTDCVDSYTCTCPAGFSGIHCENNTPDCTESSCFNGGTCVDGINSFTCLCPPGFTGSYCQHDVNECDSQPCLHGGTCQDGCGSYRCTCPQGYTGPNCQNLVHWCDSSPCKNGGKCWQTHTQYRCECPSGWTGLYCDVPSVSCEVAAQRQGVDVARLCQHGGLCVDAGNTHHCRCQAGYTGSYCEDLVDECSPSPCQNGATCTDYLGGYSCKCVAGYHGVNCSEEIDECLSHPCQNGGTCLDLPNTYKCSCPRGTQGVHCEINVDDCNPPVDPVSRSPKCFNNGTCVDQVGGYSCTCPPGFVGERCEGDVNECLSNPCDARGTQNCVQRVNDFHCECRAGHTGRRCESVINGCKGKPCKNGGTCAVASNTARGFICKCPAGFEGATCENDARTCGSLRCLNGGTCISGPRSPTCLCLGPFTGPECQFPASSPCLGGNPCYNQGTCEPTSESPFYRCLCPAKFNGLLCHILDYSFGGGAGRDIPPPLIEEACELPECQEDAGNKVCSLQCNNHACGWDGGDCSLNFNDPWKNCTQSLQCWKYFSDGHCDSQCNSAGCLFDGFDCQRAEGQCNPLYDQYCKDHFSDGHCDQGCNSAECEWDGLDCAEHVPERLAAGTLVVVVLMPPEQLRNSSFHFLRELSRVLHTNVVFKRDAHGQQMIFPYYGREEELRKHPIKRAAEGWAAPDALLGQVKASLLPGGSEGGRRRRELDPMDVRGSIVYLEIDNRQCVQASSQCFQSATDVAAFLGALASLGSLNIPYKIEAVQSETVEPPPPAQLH

| Binder | binding result | fold weaker phage-ELISA signal than the high-frequency Fabs |
| --- | --- | --- |
| B4 | binds | – |
| B5 | – | ~4 fold |
| B6 | – | ~10 fold |

These binders were tested against T2, recombinant Fc-tag-fused human Notch-1 … (assay: ELISA; multi-point Fab-ELISA: target immobilised at 5 ug/ml on MaxiSorp plates; purified Fab 0.01 nM-1 uM in PT for 30 min; detected with HRP-conjugated anti-HIS antibody; EC50 from a one-site specific-binding fit). Conditions: both partners purified.

| Binder | EC50 |
| --- | --- |
| B7 | 2.4 nM |
| B8 | 1.7 nM |
| B1 | ~4 nM |
| B9 | ~4 nM |
| B2 | ~4 nM |
| B10 | ~4 nM |
| B3 | 37 nM |

What follows are binders tested against T3, recombinant Fc-tag-fused human Notch-1 extracellular domain (Homo sapiens, UniProt P46531) (assay: BLI; Fabs immobilised on amine-reactive generation-2 or anti-Fab CH1 biosensors, target proteins in solution at at least three concentrations; 25°C, PBS; global fit to a 1:1 binding model; apparent constants (Fc fusions may dimerize)). Conditions: both partners purified.
T3 construct: Notch-1, human, extracellular domain; the R&D Systems product may hold only part of the ectodomain (surmise); also called N1; Fc-Notch; source: bought: R&D Systems
T3 sequence (P46531 19-1735): as above

| Binder | koff | kon |
| --- | --- | --- |
| B11 | 1.91e-05 s⁻¹ | 158000 M⁻¹ s⁻¹ |
| B12 | 8.15e-05 s⁻¹ | 124000 M⁻¹ s⁻¹ |
| B13 | 0.000154 s⁻¹ | 76400 M⁻¹ s⁻¹ |
| B14 | 0.000123 s⁻¹ | 322000 M⁻¹ s⁻¹ |
| B15 | 0.000218 s⁻¹ | 122000 M⁻¹ s⁻¹ |
| B16 | 6.91e-05 s⁻¹ | 54400 M⁻¹ s⁻¹ |
| B17 | 0.000484 s⁻¹ | 85300 M⁻¹ s⁻¹ |
| B18 | 0.000118 s⁻¹ | 296000 M⁻¹ s⁻¹ |

These binders were tested against T4, Jagged-2 receptor ectodomain (Homo sapiens (assumed), UniProt Q9Y219) in the same assay as above. Conditions: both partners purified.
T4 construct: Jagged-2 ectodomain; Probably an Fc fusion like the Notch proteins (surmise); also called J2
T4 sequence (Q9Y219 27-1080): as the sequence (Q9Y219 27-1080) above

| Binder | koff | kon |
| --- | --- | --- |
| B16 | 0.0226 s⁻¹ | 313000 M⁻¹ s⁻¹ |

Each binder was assayed against T2, recombinant Fc-tag-fused human Notch-1 … (assay: BLI; Octet RED384; Fabs immobilised on amine-reactive generation-2 or anti-Fab CH1 biosensors, target proteins in solution at three or more concentrations; 25 C, PBS; global 1:1 fit; apparent KD (Fc-Notch proteins may dimerize, avidity)). Conditions: both partners purified.

| Binder | Kd |
| --- | --- |
| B7 | 0.68 nM |
| B8 | 0.16 nM |
| B1 | 1.98 nM |
| B9 | 0.45 ± 0.05 nM |
| B2 | 1.88 nM |
| B10 | 0.45 ± 0.05 nM |
| B3 | 6.6 nM |
